In paper PMC5013273:
Values belong to the molecule of their own block, whether it stands above or below them.

Target: zona pellucida of in vitro matured (IVM) porcine oocytes (pig (endogenous on porcine oocytes))

- ZP digestion time in 0.5% pronase after 1 hr exposure of IVM porcine oocytes to 5, 50 and 125 μg/ml rOVGP1: 989 min
Molecule: full-length rabbit OVGP1, recombinant, histidine-tagged (natural protein)

- ZP digestion time in 0.5% pronase after 1 hr exposure of IVM porcine oocytes to 125 and 250 μg/ml pOVGP1: 102 min
B1: full-length porcine OVGP1 (oviduct-specific glycoprotein, oviductin), recombinant, histidine-tagged (natural protein)
chain: HKLVCYFANWAFSRPGPASILPRDLDPFLCTHLVFAFASMNDSQIVAKDARDESIFYPEFNQLKERNEKLKTLLSIGGWNFGTSRFTTMLSTFTNREKFIRSAIGLLRTHGFDGLDLFFLYPGLRGSPRRDRWNFLFLLEELLLAFRREAQLTMRPRLLLSAAVSADPHVIQKAYDVRLLGRLLDFINVLSYDLHGSWEKVTGHNSPLFSLSDDPKSSAYTMNYWRKLGAPPEKLLMGFPTYGRTFRLLKASKNELGAEAVGPASPGKYTKQAGFLAYYEVCSFVQRAKKRWIDHQYVPYAYRGKEWVGYDDDISFSYKAFFIKKEHFGGAMVWTLDLDDVRGTFCGTGPFPLVYMLNDLLLKAEVSSTLSPGFGLSTTVNSSRTCPESLAVTKDLTTDLGILPLGGEAVATETHGRSDNMTVTPGGGLVAPTRPTLSFGKLTVAPEGKTESPGEKAMTPVGHPSVTPGDMSVPPVPIQTGDRITPPRRQAVAPEKMTLPSGKRSD

- ZP digestion time in 0.5% pronase after 1 hr exposure of IVM porcine oocytes to 125 and 250 μg/ml pOVGP1AB: 7.75 h
B2: truncated porcine OVGP1 lacking region D (regions A and B, 481 aa), recombinant, histidine-tagged (domain or fragment)
chain: HKLVCYFANWAFSRPGPASILPRDLDPFLCTHLVFAFASMNDSQIVAKDARDESIFYPEFNQLKERNEKLKTLLSIGGWNFGTSRFTTMLSTFTNREKFIRSAIGLLRTHGFDGLDLFFLYPGLRGSPRRDRWNFLFLLEELLLAFRREAQLTMRPRLLLSAAVSADPHVIQKAYDVRLLGRLLDFINVLSYDLHGSWEKVTGHNSPLFSLSDDPKSSAYTMNYWRKLGAPPEKLLMGFPTYGRTFRLLKASKNELGAEAVGPASPGKYTKQAGFLAYYEVCSFVQRAKKRWIDHQYVPYAYRGKEWVGYDDDISFSYKAFFIKKEHFGGAMVWTLDLDDVRGTFCGTGPFPLVYMLNDLLLKAEVSSTLSPGFGLSTTVNSSRTCPESLAVTKDLTTDLGILPLGGEAVATETHGRSDNMTVTPGGGLVAPTRPTLSFGKLTVAPEGKTESPGEKAMTP
